From publication PMC7785020, “A unique hormonal recognition feature of the human glucagon-like peptide-2 receptor” (Cell Research, 2020)
Numbering of substitutions follows the chain as printed.

Columns and labels:
GLP-2R Y182^1.43A = biological target: T1, GLP-2R Y182^1.43A (Homo sapiens, UniProt O95838, Y182A); experiment: cAMP accumulation, Y182^1.43A; assay type: cell-based; parameters: WT (1–553); expressed in transfected cells; HEK 293T (cAMP); conditions: Table S3, Y182A; HEK 293T, 30 min, RT; mean ± SEM, n ≥ 3 in duplicate; read-out: cAMP Emax (% WT)
T1 sequence (O95838 1-553 Y182A): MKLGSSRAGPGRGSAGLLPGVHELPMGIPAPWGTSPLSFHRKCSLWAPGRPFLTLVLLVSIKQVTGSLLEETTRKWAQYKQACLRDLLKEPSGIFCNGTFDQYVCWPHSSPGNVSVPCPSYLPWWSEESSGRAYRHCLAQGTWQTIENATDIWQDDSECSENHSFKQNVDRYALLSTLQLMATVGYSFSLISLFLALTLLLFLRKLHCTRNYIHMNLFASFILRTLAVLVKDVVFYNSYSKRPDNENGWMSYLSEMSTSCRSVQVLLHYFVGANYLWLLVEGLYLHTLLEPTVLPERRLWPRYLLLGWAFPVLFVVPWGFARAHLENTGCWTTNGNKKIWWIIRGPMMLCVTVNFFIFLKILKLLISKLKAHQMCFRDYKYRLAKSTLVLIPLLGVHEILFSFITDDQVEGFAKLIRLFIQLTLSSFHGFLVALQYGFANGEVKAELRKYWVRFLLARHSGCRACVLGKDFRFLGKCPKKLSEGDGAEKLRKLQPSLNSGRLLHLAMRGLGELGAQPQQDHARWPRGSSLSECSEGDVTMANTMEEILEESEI
Description: (§1) HEK 293T cells were cultured in Dulbecco’s Modified Eagle’s Medium (DMEM) (Gibco, Waltham, USA) supplemented with 10% (v/v) fetal bovine serum (FBS) (Gibco) and 1% (v/v) sodium pyruvate (Gibco) at 37 °C, 5% CO2 in a humidified incubator. They were seeded onto 6-well cell culture plates and transiently transfected with different GLP-2R constructs using Lipofectamine 2000 transfection reagent (Invitrogen, Carlsbad, CA, USA). After 24 h, the transfected cells were seeded onto 384-well microtiter plates (3000 cells per well) in HBSS supplemented with 5 mM HEPES, 0.1% (w/v) bovine serum albumin (BSA) and 0.5 mM 3-isobutyl-1- methylxanthine, and stimulated with increasing concentrations of GLP-2 for 30 min at RT. Eu and Ulight were diluted by cAMP detection buffer and added to the plates separately to terminate the reaction. Plates were incubated at RT for 60 min before measuring the fluorescence intensity at 620 nm and […] by an EnVision multilabel plate reader (PerkinElmer, Boston, USA).

GLP-2R K414^7.35A = biological target: T2, GLP-2R K414^7.35A (Homo sapiens, UniProt O95838, K414A); experiment: cAMP accumulation, K414^7.35A; assay type: cell-based; parameters: GLP-2R (1-553) (WT); expressed in transfected cells; host or cells: HEK 293T; conditions: Table S3, K414A; HEK 293T, 30 min, RT; mean ± SEM, n ≥ 3 in duplicate; read-out: cAMP Emax (% WT)
T2 sequence (O95838 1-553 K414A): T1 sequence (O95838 1-553 Y182A) with A182Y, K414A
Description: as §1

[1] = biological target: GLP-2R H268^3.37A (human) (UniProt O95838); experiment: radioligand binding; competition on transiently transfected COS-7 cells: unlabeled teduglutide 0.1 nM to 1 μM against 10–15 pM [125I]GLP-2(1–33, M10Y); 4 h, 4 °C; 50 mM HEPES pH 7.4, 1 mM CaCl2, 5 mM MgCl2, 0.5% BSA; three-parameter logistic fit
[2] = biological target: GLP-2R R242^ECL1A (human) (UniProt O95838); experiment: as above
[3] = biological target: GLP-2R Y182^1.43A (human) (UniProt O95838); experiment: as above
[4] = biological target: Human GLP-2R WT (1–553) (human) (UniProt O95838); experiment: as above
[5] = biological target: GLP-2R R344^5.40A (human) (UniProt O95838); experiment: as above

Compound `CC[C@H](C)[C@H](NC(=O)[C@H](Cc1ccccc1)NC(=O)[C@H](CC(=O)O)NC(=O)[C@H](CCCNC(=N)N)NC(=O)[C@H](C)NC(=O)[C@H](C)NC(=O)[C@H](CC(C)C)NC(=O)[C@H](CC(N)=O)NC(=O)[C@H](CC(=O)O)NC(=O)[C@H](CC(C)C)NC(=O)[C@@H](NC(=O)[C@@H](NC(=O)[C@H](CC(N)=O)NC(=O)[C@H](CCSC)NC(=O)[C@H](CCC(=O)O)NC(=O)[C@H](CC(=O)O)NC(=O)[C@H](CO)NC(=O)[C@H](Cc1ccccc1)NC(=O)[C@H](CO)NC(=O)CNC(=O)[C@H](CC(=O)O)NC(=O)[C@H](C)NC(=O)[C@@H](N)Cc1c[nH]cn1)[C@@H](C)O)[C@@H](C)CC)C(=O)N[C@@H](CC(N)=O)C(=O)N[C@@H](Cc1c[nH]c2ccccc12)C(=O)N[C@@H](CC(C)C)C(=O)N[C@H](C(=O)N[C@@H](CCC(N)=O)C(=O)N[C@H](C(=O)N[C@@H](CCCCN)C(=O)N[C@H](C(=O)N[C@H](C(=O)N[C@@H](CC(=O)O)C(=O)O)[C@@H](C)O)[C@@H](C)CC)[C@@H](C)O)[C@@H](C)CC` [Human GLP-2 (1–33)] has an Emax (GLP-2R Y182^1.43A) of 102 ± 3.9% and an Emax (GLP-2R K414^7.35A) of 110 ± 3.3%.

[^125I]GLP-2(1–33, M10Y) (peptide) was tested, and the % Binding of WT [1] was 0.7%, the % Binding of WT [2] was 5.1% and the % Binding of WT [3] was 3.2%. The % Binding of WT [4] was 99.7% and the % Binding of WT [5] was 3.5%.
